Source: the supplement of paper PMC10567573

B1: RHOBTB2 (parent)
chain: HHHHGRDFLLRAASFDVCESVDEA
B2: PPEF2 (parent)
chain: FIPSSHNDRDFLTRIFTEDRFAQD

Variants of: B1
Experiment: protein stability index of a GFP-peptide fusion (GPS, HEK-293T) (PSI 1-6); higher = more stable
Conditions: c terminus: a fixed tail appended
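Also: lentivirally expressed fusions sorted by FACS into six bins by GFP to DsRed ratio, PSI derived from sequencing read proportions per bin multiplied by bin number.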

Protein stability index, by site and new letter:
E23: P 3.65; F 2.37; S 3.25; Q 3.66; W 2.52; H 2.93; T 3.13; M 3.34; K 2.57; I 2.92; V 2.45; D 3.39; G 3.21; Y 2.83; N 3.26; L 2.02; C 2.67; A 2.94; R 3.37
D22: E 3.77; I 2.5; C 2.56; K 3.33; W 1.82; A 3; F 2.21; N 3.14; Y 2.44; L 2.33; Q 3.09; P 2.85; S 3.44; R 3.15; H 2.99; V 2.91; G 3; M 3.04; T 3
V21: Q 4.2; N 4.18; M 3.92; I 3.96; P 3.61; G 4.17; W 3.61; C 3.25; H 3.08; S 3.62; K 4.5; A 3.8; D 4.84; R 3.68; Y 3.66; F 3.47; L 3.62; T 3.56; E 4.51
S20: N 3.98; F 2.88; V 3.03; K 4.12; L 3.16; W 2.39; C 2.94; A 3.08; E 4.46; I 2.73; R 3.34; G 4.1; D 4.1; Q 3.83; Y 3.21; M 2.71; H 2.81; T 4; P 3.76
A24: F 2.65; L 3.75; Y 3.29; Q 3.86; V 3.27; R 3.75; N 3.59; I 3.17; E 4.15; G 3.88; D 4.26; M 3.61; W 2.53; K 3.85; C 3.04; T 3.95; H 3.92; P 3.56; S 3.82
E19: N 3.54; T 2.76; Y 1.74; R 2.73; P 3.06; S 2.71; Q 3.34; W 2.2; M 2.44; V 2.49

Variants of: B2
Experiment: as above
Conditions: c terminus: a fixed tail appended

Protein stability index, by site and new letter:
S5: M 1.44; K 1.67; Y 1.97; A 2.53; N 1.92; F 1.55; P 2.29; E 2.4; V 2.09; D 2.67; C 1.9; L 1.41; R 2.03; H 1.89; I 2.04; G 1.74; Q 2.55; W 1.58; T 2.17
L12: Q 1.82; V 2.86; K 2.38; R 1.72; M 1.53; F 2.18; A 2.82; H 2.33; S 1.54; W 2.85; C 2.29; G 1.52; P 1.74; D 2.26; Y 1.98; I 3.01; T 2.17; N 1.45; E 2.2
D8: L 1.52; Q 2.15; S 1.3; M 1.93; G 2.51; W 2.16; H 2.04; E 1.53; R 2.25; N 1.99; A 1.89; F 2.38; V 2.08; T 2.1; I 1.68; P 1.89; Y 2.55; C 2.03; K 1.53
T13: C 2.75; A 2.57
R9: H 1.54; T 1.74; P 1.69; K 2.48; G 2.01; M 2.3; D 2.18; S 1.98; L 1.81; I 1.76; Y 1.89; F 2.21; V 2.2; E 1.89; A 2.23; N 1.76; Q 1.53; W 2.3; C 2.23
S4: G 2.53; H 1.76; L 2.02; E 1.63; Q 1.89; D 2.11; V 2.29; N 3.06; P 1.8; R 2.14; F 1.99; A 2.19; Y 1.94; W 2.19; T 2.57; M 1.31; I 3.25; K 2.29; C 1.39
N7: K 2.99; E 2.39; V 1.8; D 1.56; F 1.89; Y 2.95; I 2.11; R 2.33; M 2.22; C 2.17; W 1.6; S 1.73; A 1.65; Q 2.46; L 1.97; T 2.17; G 2.01; H 3.59; P 1.92
F11: D 2.74; Y 2.1; G 2.21; C 2.8; S 1.58; P 2.16; N 2.67; T 1.7; E 2.33; K 1.76; L 1.56; V 2.01; R 1.99; I 1.8; M 2.13; A 1.98; W 1.93; Q 2; H 1.89
I2: N 1.96; T 3.63; H 2.06; D 4.44; V 2.73; K 2.92; S 2.2; C 1.46; P 1.78; F 3.32; M 2.07; R 3.12; A 3.29; E 3.85; Q 1.5; G 2.62; L 2.96; W 2.23; Y 3.38
H6: P 1.49; Y 2.21; W 1.71; N 1.47; A 1.71; C 1.61; F 1.21; V 1.5; L 2.23; I 2.44; M 1.09; G 2.07; S 1.91; D 2.56; R 1.68; Q 1.73; K 2.23; T 1.38; E 1.99
F1: K 3.85; S 4.4; Y 1.63; L 3.73; E 4.06; N 4.05; D 3.89; I 3.54; P 4.18; W 3.04; Q 4.19; M 4.06; H 4.22; C 4.21; T 4.21; R 3.75; G 4.38; V 3.88; A 4.31
D10: M 1.87; V 3.75; S 2.37; P 2.14; C 2.41; I 3.22; A 2.69; N 2.96; Q 2.77; F 2.05; K 1.89; T 2.54; H 2.8; G 2.46; R 2.67; E 1.96; W 2.6; Y 2.39
P3: L 1.92; M 1.34; Q 1.92; F 1.79; R 1.72; E 2.82; G 2.1; D 2.75; S 1.91; N 2.25; C 1.3; A 2.23; W 2.3; Y 1.84; T 1.99; K 1.25; H 2.35; V 1.97; I 2.19
